Bridge positions count the residues as written; N and C are the ends. Square brackets hold non-standard residues; d marks the D form. Ends that are not written are not given here. Pen = CC(C)(S)[C@H](N)C(=O)O; Dab = NCC[C@H](N)C(=O)O
B1: Peptide No. 36 (peptide)
peptide: QRFCTG[Dab]FGGLYPCNGP-NH2
modifications: disulfide 4-14; N-terminus assumed
SMILES: CC(C)C[C@@H]1NC(=O)CNC(=O)CNC(=O)[C@H](Cc2ccccc2)NC(=O)[C@H](CCN)NC(=O)CNC(=O)[C@H]([C@@H](C)O)NC(=O)[C@@H](NC(=O)[C@H](Cc2ccccc2)NC(=O)[C@H](CCCNC(=N)N)NC(=O)[C@@H](N)CCC(N)=O)CSSC[C@@H](C(=O)N[C@@H](CC(N)=O)C(=O)NCC(=O)N2CCC[C@H]2C(N)=O)NC(=O)[C@@H]2CCCN2C(=O)[C@H](Cc2ccc(O)cc2)NC1=O
B2: Peptide No. 269 (peptide)
peptide: RFXTGXFGGLYPC
modifications: Pen at 3; Thz(Me) (N-methyl-thiazolium) at 6; Sar at 9; NMeLeu at 10; disulfide; -CONH2
B3: Peptide No. 271 (peptide)
peptide: RFXTGXFGGLYPC
modifications: Pen at 3; triazolylAla at 6; Sar at 9; NMeLeu at 10; disulfide; C-terminal amide
B4: Peptide No. 261 (peptide)
peptide: RFXTGXFGGLYPC
modifications: Pen at 3; PropargylGly at 6; Sar at 9; NMeLeu at 10; disulfide; C-terminal amide
B5: Peptide No. 248 (peptide)
peptide: RFXTGXFGGLYPC
modifications: not fully specified; Pen at 3; Thz at 6; Sar at 9; NMeLeu at 10; disulfide; C-terminal amide
B6: Peptide No. 262 (peptide)
peptide: RFXTGXFGGLYPC
modifications: Pen at 3; 2-PyrrolidinylAla at 6; Sar at 9; NMeLeu at 10; disulfide; C-terminal amide
B7: Peptide No. 149 (peptide)
peptide: QRF[Pen]TGHF[dA][dP]LYPCNGP-NH2
modifications: disulfide 4-14; N-terminus assumed
SMILES: CC(C)C[C@@H]1NC(=O)[C@H]2CCCN2C(=O)[C@@H](C)NC(=O)[C@H](Cc2ccccc2)NC(=O)[C@H](Cc2c[nH]cn2)NC(=O)CNC(=O)[C@H]([C@@H](C)O)NC(=O)[C@@H](NC(=O)[C@H](Cc2ccccc2)NC(=O)[C@H](CCCNC(=N)N)NC(=O)[C@@H](N)CCC(N)=O)C(C)(C)SSC[C@@H](C(=O)N[C@@H](CC(N)=O)C(=O)NCC(=O)N2CCC[C@H]2C(N)=O)NC(=O)[C@@H]2CCCN2C(=O)[C@H](Cc2ccc(O)cc2)NC1=O
B8: Peptide No. 155 (peptide)
peptide: QRF[Pen]TGHF[dF]GPYPCNGP-NH2
modifications: disulfide 4-14; N-terminus assumed
SMILES: C[C@@H](O)[C@@H]1NC(=O)[C@@H](NC(=O)[C@H](Cc2ccccc2)NC(=O)[C@H](CCCNC(=N)N)NC(=O)[C@@H](N)CCC(N)=O)C(C)(C)SSC[C@@H](C(=O)N[C@@H](CC(N)=O)C(=O)NCC(=O)N2CCC[C@H]2C(N)=O)NC(=O)[C@@H]2CCCN2C(=O)[C@H](Cc2ccc(O)cc2)NC(=O)[C@@H]2CCCN2C(=O)CNC(=O)[C@@H](Cc2ccccc2)NC(=O)[C@H](Cc2ccccc2)NC(=O)[C@H](Cc2c[nH]cn2)NC(=O)CNC1=O
B9: Peptide No. 151 (peptide)
peptide: QRF[Pen]TGHF[dF][dA]LYPCNGP-NH2
modifications: disulfide 4-14; N-terminus assumed
SMILES: CC(C)C[C@@H]1NC(=O)[C@@H](C)NC(=O)[C@@H](Cc2ccccc2)NC(=O)[C@H](Cc2ccccc2)NC(=O)[C@H](Cc2c[nH]cn2)NC(=O)CNC(=O)[C@H]([C@@H](C)O)NC(=O)[C@@H](NC(=O)[C@H](Cc2ccccc2)NC(=O)[C@H](CCCNC(=N)N)NC(=O)[C@@H](N)CCC(N)=O)C(C)(C)SSC[C@@H](C(=O)N[C@@H](CC(N)=O)C(=O)NCC(=O)N2CCC[C@H]2C(N)=O)NC(=O)[C@@H]2CCCN2C(=O)[C@H](Cc2ccc(O)cc2)NC1=O
B10: Peptide No. 157 (peptide)
peptide: QRFVTGHFG[dP]LYPANGP-NH2
modifications: N-terminus assumed
SMILES: CC(C)C[C@H](NC(=O)[C@H]1CCCN1C(=O)CNC(=O)[C@H](Cc1ccccc1)NC(=O)[C@H](Cc1c[nH]cn1)NC(=O)CNC(=O)[C@@H](NC(=O)[C@@H](NC(=O)[C@H](Cc1ccccc1)NC(=O)[C@H](CCCNC(=N)N)NC(=O)[C@@H](N)CCC(N)=O)C(C)C)[C@@H](C)O)C(=O)N[C@@H](Cc1ccc(O)cc1)C(=O)N1CCC[C@H]1C(=O)N[C@@H](C)C(=O)N[C@@H](CC(N)=O)C(=O)NCC(=O)N1CCC[C@H]1C(N)=O
B11: Peptide No. 174 (peptide)
peptide: QRFVTGHFG[dP]IYPANGP-NH2
modifications: N-terminus assumed
SMILES: CC[C@H](C)[C@H](NC(=O)[C@H]1CCCN1C(=O)CNC(=O)[C@H](Cc1ccccc1)NC(=O)[C@H](Cc1c[nH]cn1)NC(=O)CNC(=O)[C@@H](NC(=O)[C@@H](NC(=O)[C@H](Cc1ccccc1)NC(=O)[C@H](CCCNC(=N)N)NC(=O)[C@@H](N)CCC(N)=O)C(C)C)[C@@H](C)O)C(=O)N[C@@H](Cc1ccc(O)cc1)C(=O)N1CCC[C@H]1C(=O)N[C@@H](C)C(=O)N[C@@H](CC(N)=O)C(=O)NCC(=O)N1CCC[C@H]1C(N)=O
B12: Peptide No. 168 (peptide)
peptide: QRFVTGHFG[dP]LYPLNGP-NH2
modifications: N-terminus assumed
SMILES: CC(C)C[C@H](NC(=O)[C@H]1CCCN1C(=O)CNC(=O)[C@H](Cc1ccccc1)NC(=O)[C@H](Cc1c[nH]cn1)NC(=O)CNC(=O)[C@@H](NC(=O)[C@@H](NC(=O)[C@H](Cc1ccccc1)NC(=O)[C@H](CCCNC(=N)N)NC(=O)[C@@H](N)CCC(N)=O)C(C)C)[C@@H](C)O)C(=O)N[C@@H](Cc1ccc(O)cc1)C(=O)N1CCC[C@H]1C(=O)N[C@@H](CC(C)C)C(=O)N[C@@H](CC(N)=O)C(=O)NCC(=O)N1CCC[C@H]1C(N)=O
B13: Peptide No. 175 (peptide)
peptide: QRFVTGHFG[dP]FYPANGP-NH2
modifications: N-terminus assumed
SMILES: CC(C)[C@H](NC(=O)[C@H](Cc1ccccc1)NC(=O)[C@H](CCCNC(=N)N)NC(=O)[C@@H](N)CCC(N)=O)C(=O)N[C@H](C(=O)NCC(=O)N[C@@H](Cc1c[nH]cn1)C(=O)N[C@@H](Cc1ccccc1)C(=O)NCC(=O)N1CCC[C@@H]1C(=O)N[C@@H](Cc1ccccc1)C(=O)N[C@@H](Cc1ccc(O)cc1)C(=O)N1CCC[C@H]1C(=O)N[C@@H](C)C(=O)N[C@@H](CC(N)=O)C(=O)NCC(=O)N1CCC[C@H]1C(N)=O)[C@@H](C)O

biological target: T1, soluble human FcRn (human, UniProt P55899 24-297; P61769 21-119, biotinylated (Sulfo-NHS-LC-Biotin) in the ELISA; amine-coupled to CM5 chip in SPR); assay: ELISA, competitor human IgG
T1 construct: also called shFcRn; biotinylated shFcRn
T1 sequence (P55899 24-297 limits assumed, chain 1 of 2): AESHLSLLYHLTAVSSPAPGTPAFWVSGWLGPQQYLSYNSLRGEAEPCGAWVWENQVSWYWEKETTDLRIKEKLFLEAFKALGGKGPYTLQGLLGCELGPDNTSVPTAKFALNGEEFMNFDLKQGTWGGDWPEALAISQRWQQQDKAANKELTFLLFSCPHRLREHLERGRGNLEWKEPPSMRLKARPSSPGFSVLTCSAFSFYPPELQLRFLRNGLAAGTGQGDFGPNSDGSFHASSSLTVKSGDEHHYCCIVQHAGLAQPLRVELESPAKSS
T1 sequence (P61769 21-119 limits assumed, chain 2 of 2): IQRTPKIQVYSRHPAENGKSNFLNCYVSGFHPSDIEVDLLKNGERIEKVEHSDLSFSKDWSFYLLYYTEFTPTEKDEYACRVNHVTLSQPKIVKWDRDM
Description: (§1) The wells were coated with 100 μl/well of 1 μg/ml biotinylated-shFcRn in Buffer A. The plate was sealed and incubated at 37° C. for 2 hours. Afterwards, the plate washed with 200 μl/well of Buffer B (Buffer B: 100 mM MES pH 6, 150 mM NaCl, 0.5% BSA IgG-free (Jackson ImmunoResearch, West Grove, Pa.), 0.05% Tween-20). […] To allow for mixing, the plate was rocked for 2 minutes, sealed and incubated at 37° C. for 2 hours. […] The plate was covered, incubated for 30 minutes at room temperature and washed 4 times with 200 μl/well of ice-cold buffer B. SureBlue TMB substrate solution (100 μl/well, KPL, Gaithersburg, Md.) was added and the plate was allowed to incubate at room temperature until color developed, which took 5 to 10 minutes. Once color developed, 100 μl/well of TMB stop solution (KPL, Gaithersburg, Md.) was added and the absorbance was measured at 450 nm. The data was plotted as absorbance vs. peptide concentration to derive the inhibitory concentration 50% (IC₅₀) values.

For B1, which IC50 is on record?
Its IC50 is greater than 125 µM.

Which IC50 does the source give for QRFXTGXFGGLYPCNGP (Pen at 4; Thz at 7; disulfide; C-terminal amide) [Peptide No. 91] here?
The IC50 was 44 µM.

How did the IC50 turn out when B2 was run?
The IC50 was 2.4 µM.

How did the IC50 turn out when RFXTGXFGGLYPC (Pen at 3; 4aminoPhe at 6; Sar at 9; NMeLeu at 10; disulfide; C-terminal amide) [Peptide No. 258] was run?
The IC50 was 4.6 µM.

B3 was tested. Which IC50 did it give?
The IC50 was 5.7 µM.

With B4 as the binder, how does the IC50 read?
Its IC50 is 160 µM.

For RFXTGAFGGLYPC (Pen at 3; Sar at 9; NMeLeu at 10; disulfide; C-terminal amide) [Peptide No. 266], which IC50 is on record?
Its IC50 is greater than 100 µM.

With QRFXTGXFGGLYPCNGP (Pen at 4; (1Me)His at 7; disulfide; C-terminal amide) [Peptide No. 138] as the binder, how does the IC50 read?
The IC50 was 3.4 µM.

With B5 as the binder, how does the IC50 read?
The IC50 was 1.6 µM.

biological target: T1, soluble human FcRn; assay: SPR, pH 6
Description: (§2) The following steps were performed to cross-link soluble human or cynomolgus FcRn to the dextran surface of a CM5 sensor chip (Biacore AB, Uppsala, Sweden) by an amine coupling reaction involving 1-ethyl-(3-dimethylaminopropyl)-carbodiimide hydrochloride (EDC) (Biacore AB, Uppsala, Sweden) and N-hydroxysuccinimide (NHS) (Biacore AB, Uppsala, Sweden) as recommended by Biacore (BIAapplications Handbook, version AB, section 4.2, Biacore AB, Uppsala, Sweden). […] Residual sites on the FcRn flow cell were blocked with 1 M ethanolamine hydrochloride pH 8.5 (Biacore AB, Uppsala, Sweden). A control flow cell was blocked with ethanolamine for reference subtraction. For analysis of the monomeric peptides, FcRn was coated to a final density of 4000-5000 response units (RU). For analysis of the peptide dimers, FcRn was coated to a density of 2000-2500 RU. All SPR measurements were performed using a BIACORE 3000 Instrument (Biacore AB Uppsala, Sweden). For measurements done at either pH 6 or pH 7.4, experiments were performed in 50 mM phosphate, 100 mM sodium chloride, 0.01% surfactant P20 (Biacore AB, Uppsala, Sweden).
(§3) Ten, 2-fold dilutions of the peptide were injected over the FcRn-CM5 chip at a rate of 20 μl/min for 2 min. The peptide was dissociated from the chip for 2.5 minutes with buffer. Any remaining peptide was removed from the chip with a 30 second injection of HBS-P buffer (Biacore AB, Uppsala, Sweden) at a rate of 30 μl/min. Sensorgrams were generated and analyzed using BiaEval software version 3.1 (Biacore AB, Uppsala, Sweden). The equilibrium RU observed for each injection was plotted against concentration. The equilibrium KD values were derived by analysis of the plots using the steady state affinity model included in the BiaEval software.

For B6, which Kd is on record?
The Kd was 8400 nM.

RFXTGAFGGLYPC (Pen at 3; Sar at 9; NMeLeu at 10; disulfide; C-terminal amide) [Peptide No. 266] was tested. Which Kd did it give?
Its Kd is 9900 nM.

Which Kd does the source give for RFXTGXFGGLYPC (Pen at 3; Orn at 6; Sar at 9; NMeLeu at 10; disulfide; C-terminal amide) [Peptide No. 254] here?
Its Kd is 1300 nM.

Which Kd does the source give for QRFXTGXFGGLYPCNGP (Pen at 4; (1Me)His at 7; disulfide; C-terminal amide) [Peptide No. 138] here?
The Kd was 740 nM.

For B5, which Kd is on record?
Its Kd is 840 nM.

biological target: T1, soluble human FcRn; assay: ELISA, competitor human IgG; remark: another data set of the same source
Description: as §1

QRFXTGHFXGLYPCNGP (Pen at 4; Aib at 9; disulfide; C-terminal amide) [Peptide No. 54] was tested. Which IC50 did it give?
Its IC50 is 17 µM.

With QRFXTGHFFPLYPCNGP (Pen at 4; D-Phe at 9; D-Pro at 10; disulfide; C-terminal amide) [Peptide No. 150] as the binder, how does the IC50 read?
Its IC50 is 5.9 µM.

For QRFXTGHFPPLYPCNGP (Pen at 4; D-Pro at 9 and 10; disulfide; C-terminal amide) [Peptide No. 152], which IC50 is on record?
Its IC50 is 21 µM.

Which IC50 does the source give for B7 here?
Its IC50 is 3.7 µM.

QRFXTGHFGALYPCNGP (Pen at 4; D-Ala at 10; disulfide; C-terminal amide) [Peptide No. 74] was tested. Which IC50 did it give?
Its IC50 is 2 µM.

How did the IC50 turn out when QRFXTGHFRGLYPCNGP (Pen at 4; D-Arg at 9; disulfide; C-terminal amide) [Peptide No. 49] was run?
The IC50 was 4.1 µM.

For QRFXTGHFFGLYPCNGP (Pen at 4; D-Phe at 9; NMeLeu at 11; disulfide; C-terminal amide) [Peptide No. 153], which IC50 is on record?
The IC50 was 1.3 µM.

QRFXTGHFPGLYPCNGP (Pen at 4; D-Pro at 9; disulfide; C-terminal amide) [Peptide No. 48] was tested. Which IC50 did it give?
The IC50 was 5 µM.

With B8 as the binder, how does the IC50 read?
Its IC50 is 39 µM.

How did the IC50 turn out when B9 was run?
The IC50 was 4.3 µM.

How did the IC50 turn out when QRFXTGHFFGLYPCNGP (Pen at 4; D-Phe at 9; disulfide; C-terminal amide) [Peptide No. 52] was run?
The IC50 was 2.8 µM.

For QRFXTGHFHGLYPCNGP (Pen at 4; D-His at 9; disulfide; C-terminal amide) [Peptide No. 50], which IC50 is on record?
The IC50 was 3.6 µM.

biological target: T1, soluble human FcRn; assay: SPR, pH 6; remark: another data set of the same source
Description: as §2, §3

QRFXTGHFXGLYPCNGP (Pen at 4; Aib at 9; disulfide; C-terminal amide) [Peptide No. 54] was tested. Which Kd did it give?
The Kd was 5200 nM.

How did the Kd turn out when QRFXTGHFGYLYPCNGP (Pen at 4; D-Tyr at 10; disulfide; C-terminal amide) [Peptide No. 45] was run?
The Kd was 1500 nM.

Which Kd does the source give for QRFXTGHFFPLYPCNGP (Pen at 4; D-Phe at 9; D-Pro at 10; disulfide; C-terminal amide) [Peptide No. 150] here?
The Kd was 720 nM.

How did the Kd turn out when QRFXTGHFAALYPCNGP (Pen at 4; D-Ala at 9 and 10; disulfide; C-terminal amide) [Peptide No. 148] was run?
The Kd was 450 nM.

For QRFXTGHFGALYPCNGP (Pen at 4; D-Ala at 10; disulfide; C-terminal amide) [Peptide No. 74], which Kd is on record?
Its Kd is 480 nM.

QRFXTGHFFGLYPCNGP (Pen at 4; D-Phe at 9; NMeLeu at 11; disulfide; C-terminal amide) [Peptide No. 153] was tested. Which Kd did it give?
Its Kd is 240 nM.

Which Kd does the source give for QRFXTGHFAGLYPCNGP (Pen at 4; D-Ala at 9; disulfide; C-terminal amide) [Peptide No. 75] here?
Its Kd is 490 nM.

With B8 as the binder, how does the Kd read?
Its Kd is 18300 nM.

For QRFXTGHFAGLYPCNGP (Pen at 4; D-Ala at 9; Sar at 10; disulfide; C-terminal amide) [Peptide No. 189], which Kd is on record?
Its Kd is 190 nM.

QRFXTGHFFGLYPCNGP (Pen at 4; D-Phe at 9; disulfide; C-terminal amide) [Peptide No. 52] was tested. Which Kd did it give?
Its Kd is 510 nM.

How did the Kd turn out when QRFXTGHFFPLYPCNGP (Pen at 4; D-Phe at 9 (L-Pro at 10); disulfide; C-terminal amide) [Peptide No. 203] was run?
The Kd was 3800 nM.

biological target: T1, soluble human FcRn; assay: ELISA, competitor human IgG; remark: another data set of the same source

With B10 as the binder, how does the IC50 read?
Its IC50 is 195 µM.

For B11, which IC50 is on record?
The IC50 was 94 µM.

Which IC50 does the source give for B12 here?
Its IC50 is 100 µM.

Which IC50 does the source give for B13 here?
Its IC50 is 200 µM.
